This is an account of results in paper PMC10944485, “Structure of full-length ERGIC-53 in complex with MCFD2 for cargo transport” (Nature Communications, 2024).

The target in experiment [1] is ERGIC-53 ΔH34 mutant with a C-terminal FLAG (human) (UniProt P49257). The experiment is described as follows: cryo-EM structure; ERGIC-53 ΔH34-MCFD2 complex, 1.7 mg/ml.
Experiment [2] deals with T1, full-length human ERGIC-53 with a C-terminal PA tag (human), P49257.
T1 chain: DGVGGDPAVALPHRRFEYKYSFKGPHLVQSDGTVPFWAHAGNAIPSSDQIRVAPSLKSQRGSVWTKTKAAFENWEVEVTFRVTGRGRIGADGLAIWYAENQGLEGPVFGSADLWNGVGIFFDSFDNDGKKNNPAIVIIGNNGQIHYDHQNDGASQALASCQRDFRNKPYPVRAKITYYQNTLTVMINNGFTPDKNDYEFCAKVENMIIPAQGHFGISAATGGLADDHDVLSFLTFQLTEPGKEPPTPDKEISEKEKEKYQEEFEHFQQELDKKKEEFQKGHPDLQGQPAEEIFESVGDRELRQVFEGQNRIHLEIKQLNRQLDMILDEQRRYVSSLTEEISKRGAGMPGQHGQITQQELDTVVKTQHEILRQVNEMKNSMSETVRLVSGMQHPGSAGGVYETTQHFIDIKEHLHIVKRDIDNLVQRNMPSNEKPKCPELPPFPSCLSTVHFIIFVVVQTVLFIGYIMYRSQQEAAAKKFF
The experiment is described as follows: SEC-MALS; ERGIC-53 at weakly acidic Golgi pH (pH 6.5). The following applies: remark: other sources report otherwise. On the technique in general: Size exclusion chromatography separates by hydrodynamic size, large species first.

Experiment [3] deals with T1, full-length human ERGIC-53 with a …. The experiment is described as follows: cryo-EM structure; full-length ERGIC-53 with MCFD2, 4-5 mg/ml in GDN with 3 mM fluorinated Fos-Choline-8; head region forms A and B, four substates, and full-length map. The following applies: remark: other sources report otherwise.
Experiment [4] shares this target. The experiment is described as follows: SEC-MALS; Superdex 200 Increase 3.2/300; 20 mM Tris-HCl pH 7.5, 150 mM NaCl, 10 mM CaCl2, 0.02% GDN; samples 1.6-1.7 mg/ml; conjugate analysis (MALS-UV-RI); ERGIC-53 alone and its complex with MCFD2. The following applies: remark: other sources report otherwise.
The target of experiment [5] is T2, full-length human ERGIC-53 with a C-terminal PA tag (human, UniProt P49257 31-510).
T2 construct: ERGIC-53 (LMAN1), human, full length; cDNA subcloned from a HeLa cDNA library; Eluted from the beads with PA peptide; no step that removes the tag is described; Treated with 1 mM diamide before SEC; mixture of covalent (disulfide-linked) and noncovalent tetramers; The CRD is numbered from residue 31, so the signal peptide is probably cut off in the cells (surmised); also called LMAN1; P58
T2 sequence (looked up): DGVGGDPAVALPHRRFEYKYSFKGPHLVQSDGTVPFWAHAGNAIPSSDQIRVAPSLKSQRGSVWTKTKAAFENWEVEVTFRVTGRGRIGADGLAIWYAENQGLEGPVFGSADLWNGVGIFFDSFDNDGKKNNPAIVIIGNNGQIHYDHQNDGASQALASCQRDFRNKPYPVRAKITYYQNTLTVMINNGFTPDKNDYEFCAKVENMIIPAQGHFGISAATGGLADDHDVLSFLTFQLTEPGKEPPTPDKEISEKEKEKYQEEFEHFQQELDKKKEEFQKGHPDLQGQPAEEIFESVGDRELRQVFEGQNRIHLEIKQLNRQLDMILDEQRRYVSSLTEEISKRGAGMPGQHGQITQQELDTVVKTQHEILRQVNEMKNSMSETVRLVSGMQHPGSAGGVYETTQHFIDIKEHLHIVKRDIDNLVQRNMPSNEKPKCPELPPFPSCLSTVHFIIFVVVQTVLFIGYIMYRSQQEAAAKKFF
The experiment is described as above. As to conditions: both partners purified.

A word on the stoichiometry N: it is the number of molecules, sites or subunits per partner or assembly.

Molecule “ERGIC-53 ΔH34 mutant with a C-terminal FLAG (from UniProt P49257 31-510) (receptor)” displayed a stoichiometry N in experiment [1] of 4.

B1: full-length human ERGIC-53 with a C-terminal PA tag, P49257 31-510 (receptor)
chain: DGVGGDPAVALPHRRFEYKYSFKGPHLVQSDGTVPFWAHAGNAIPSSDQIRVAPSLKSQRGSVWTKTKAAFENWEVEVTFRVTGRGRIGADGLAIWYAENQGLEGPVFGSADLWNGVGIFFDSFDNDGKKNNPAIVIIGNNGQIHYDHQNDGASQALASCQRDFRNKPYPVRAKITYYQNTLTVMINNGFTPDKNDYEFCAKVENMIIPAQGHFGISAATGGLADDHDVLSFLTFQLTEPGKEPPTPDKEISEKEKEKYQEEFEHFQQELDKKKEEFQKGHPDLQGQPAEEIFESVGDRELRQVFEGQNRIHLEIKQLNRQLDMILDEQRRYVSSLTEEISKRGAGMPGQHGQITQQELDTVVKTQHEILRQVNEMKNSMSETVRLVSGMQHPGSAGGVYETTQHFIDIKEHLHIVKRDIDNLVQRNMPSNEKPKCPELPPFPSCLSTVHFIIFVVVQTVLFIGYIMYRSQQEAAAKKFF
As for B1, the stoichiometry N in experiment [2], in experiment [3] and in experiment [4] was 4 in each case.

B2: human MCFD2 lumen domain (residues 27-146) (domain or fragment, UniProt Q8NI22 27-146, looked up)
chain: EEPAASFSQPGSMGLDKNTVHDQEHIMEHLEGVINKPEAEMSPQELQLHYFKMHDYDGNNLLDGLELSTAITHVHKEEGSEQAPLMSEDELINIIDGVLRDDDKNNDGYIDYAEFAKSLQ
notes: MCFD2, human, lumen domain, residues 27-146, in pET15b; Thrombin cleavage of the pET15b His tag probably leaves a few vector residues at the N-terminus (surmised); also called multiple coagulation factor deficiency 2; source: E. coli BL21 (DE3), purified (Ni-NTA, MonoQ, thrombin cleavage, SEC); not shown: His tag, N-terminal, cleaved
In the case of B2, the “stoichiometry N” value in experiment [5] was 1.
